Laboratory results from CN116178551A (BEIJING DONGFANG BIOTECH CO LTD, dated 2023).

B1: MA-1鼠源抗体 (murine full antibody MA-1, mouse IgG2a / mouse Ck) (antibody, V domains shown)
VH: EVKLEESGGGLVKPGGSLKLSCAASGFAFSDYDMSWVRQTPEKRLEWVATISSGGSYTYYPDSVKGRFTISRDNARNTLYLQMSSLRSEDTALYYCTSPRQVGLRKAFDYWGQGTTLTVSS
VL: DIVVTQSPALMSASPGEKVTMTCSASSSVSYMYWYQQKPRSSPKSWIYLTSNLASGVPARFSGSGSGTSYSLTISSMEAEDAATYYCQQWSSNPFTFGSGTKLEIKR
notes: also called 抗NKG2A单克隆抗体MA-1; 鼠源全抗分子
B2: 噬菌体单克隆抗体MA-1 (phage-displayed single-chain antibody MA-1) (scFv)
chain: EVKLEESGGGLVKPGGSLKLSCAASGFAFSDYDMSWVRQTPEKRLEWVATISSGGSYTYYPDSVKGRFTISRDNARNTLYLQMSSLRSEDTALYYCTSPRQVGLRKAFDYWGQGTTLTVSSDIVVTQSPALMSASPGEKVTMTCSASSSVSYMYWYQQKPRSSPKSWIYLTSNLASGVPARFSGSGSGTSYSLTISSMEAEDAATYYCQQWSSNPFTFGSGTKLEIKRAD

Legend:
[1] = target: T1, huFc-NKG2C/CD94 (UniProt P26717 94-231; Q13241 32-179, limits assumed); assay: ELISA, serial dilution of MA-1 on huFc-NKG2C/CD94, anti-mouse Ig-HRP
T1 construct: The construct is named only, and its architecture is not described; not shown: human Fc (huFc)
T1 sequence (P26717 94-231 limits assumed, chain 1 of 2): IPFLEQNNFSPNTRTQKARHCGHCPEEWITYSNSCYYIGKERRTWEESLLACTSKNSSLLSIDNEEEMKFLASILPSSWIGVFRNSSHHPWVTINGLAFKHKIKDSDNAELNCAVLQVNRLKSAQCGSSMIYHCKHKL
T1 sequence (Q13241 32-179 limits assumed, chain 2 of 2): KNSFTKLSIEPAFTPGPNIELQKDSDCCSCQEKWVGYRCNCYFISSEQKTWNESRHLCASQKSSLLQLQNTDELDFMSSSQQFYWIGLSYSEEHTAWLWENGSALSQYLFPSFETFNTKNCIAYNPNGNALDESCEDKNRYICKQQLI

[2] = target: T2, huFc-NKG2E/CD94 (UniProt Q07444 94-240; Q13241 32-179, limits assumed); assay: ELISA, serial dilution of MA-1 on huFc-NKG2E/CD94, anti-mouse Ig-HRP
T2 construct: The construct is named only, and its architecture is not described; not shown: human Fc (huFc)
T2 sequence (Q07444 94-240 limits assumed, chain 1 of 2): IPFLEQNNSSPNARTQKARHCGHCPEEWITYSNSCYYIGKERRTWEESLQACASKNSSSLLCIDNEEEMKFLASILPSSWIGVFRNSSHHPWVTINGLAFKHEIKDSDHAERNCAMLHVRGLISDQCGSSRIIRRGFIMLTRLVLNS
T2 sequence (Q13241 32-179 limits assumed, chain 2 of 2): as the sequence (Q13241 32-179 limits assumed, chain 2 of 2) above

[3] = target: T3, huFc-NKG2A/CD94 (UniProt P26715 94-233; Q13241 32-179, limits assumed); assay: phage supernatant ELISA, huFc-NKG2A/CD94 against huFc-NKG2C/CD94 and huFc-NKG2E/CD94 (selection criterion met by MA-1)
T3 construct: The construct is named only, and its architecture is not described; The Fc is placed N-terminal following the printed name; not shown: human Fc (huFc)
T3 sequence (P26715 94-233 limits assumed, chain 1 of 2): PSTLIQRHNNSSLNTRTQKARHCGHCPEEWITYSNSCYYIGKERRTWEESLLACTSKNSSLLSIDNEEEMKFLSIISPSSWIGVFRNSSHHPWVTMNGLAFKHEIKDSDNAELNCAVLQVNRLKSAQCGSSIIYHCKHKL
T3 sequence (Q13241 32-179 limits assumed, chain 2 of 2): as the sequence (Q13241 32-179 limits assumed, chain 2 of 2) above

Binder | binding result [1] | binding result [2] | OD450nm读值 with NKG2A relative to NKG2C/E [3]
B1 | no binding | no binding | 
B2 |  |  | > 3 fold
